Test: yeast display, Sf9 membrane polyspecificity reagent, FACS + sequencing; frameworks hold sequencing errors
Procedure, shortened: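 After 36–48 hours of galactose induction, yeast (Saccharomyces cerevisiae BJ5465) displaying a synthetic nanobody library were stained at 4 °C for 1 hour with 10% biotinylated, detergent-solubilized Sf9 membrane reagent. Streptavidin microbeads enriched the stained cells before FACS sorting into low and high (top ~1%) gates on anti-HA and streptavidin fluorescence. Each clone's polyreactivity label reflects its gate of origin.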

Row | Sequence | polyreactivity (PSR sort gate)
1 | QVQLVESGGGLVQAGGSLRLSCAAYGSNYSTYTMGWYRTAAGKERQLVAAITRSGGSTYYADSVKGRFTISRDNAKKTDYLQMNSLKPEDTAVFYCAARGQAYSGDRMYYWGLGTQVTVSS | high polyreactivity
2 | QVQLVESGGGLVQAGGSLRLSCAAYGSTFIAYAMGWYRQAPGKERELVAAITRGGSTNYADSVKGRFTISRDNAKNTVYLQMNRLKPEDTAVYYCAADRSWGYWGRSRYDYWGQGTQVTVSS | high polyreactivity
3 | QVQLVESGGGLVQAGGSLRLSCAAYGSTFKRNAMGCYRQAPGKEREFVAAITWSGGSTYYADSVKGRFTISRDNAKNTVYLQMNSLKPEDTAVYYCNADRFSSRHSYDYWGQGTQVTVSS | low polyreactivity
4 | QVQLVESGGGLVQAGGSLRLSCAAYGSTFPSYAMGSNRQAPGKERELVAAISWTGGTTYFADSVKGRFTISRDNAKNTVYLQMNSLKPEDTAVYYCNAKDGGGSQDQAQKRPIIRFDYWGQGSQVTVSS | high polyreactivity
5 | QVQLVESGGGLVQAGGSLRLSCAAYGSTFQRYAMGWYRQAPGKERELVAAITLSGGNTYYADSVKGRFTISRDNAKNNVYLQMNSLKPEDTAVYYCAARRYRGYDYWGQGTQVTVSS | high polyreactivity
6 | QVQLVESGGGLVQAGGSLRLSCAAYGSTFTSYAMGWYRQAPGKERELVAAISSSGTRTYYADSVKGRFTISRDNAKNTVYLQMNSLKPEDTAVYYCAKASPYSKLYYWGQGTQGTVSS | high polyreactivity
7 | QVQLVESGGGLVQAGGSLRLSCAAYGSTFWANAMGWYRQAPGKERELVAAIRGTGGSTYADSVKGRFTISRDNAKNTVYLQMNSLKPEDTAVYYCNAKGRGWTAQYDYWGQGTQVTVSS | low polyreactivity
8 | QVQLVESGGGLVQAGGSLRLSCAAYGSTLDGNAMGWYRQAPGKERELVAGLDTGGSTYYADSVKGRFTISRDNAKYTVYLQLIRLKPEDTAVYDCAATDREDYDYWGQGTQVTVSS | low polyreactivity
9 | QVQLVESGGGLVQAGGSLRLSCAAYGSTLSPYTMGWYRQAPGKERELVAAITQSGGSTYYADSVKGRFTISRDKAKYTVYLQMNSLKPEDTAVYYCNRDYNADYDWGQGTQVTVSS | high polyreactivity
10 | QVQLVESGGGLVQAGGSLRLSCAAYGYIFLRNAMGWYRQAPGKERELVAAIRRTGGSTYYADSVKGRFTISRDNAKNTVYLQMNSLKPEDTAVYYCAKRSYTGYEYWGQGTQVTVSS | low polyreactivity
11 | QVQLVESGGGLVQAGGSLRLSCAAYRFIFATNTMGCYRQAPGKETELVAASSTYYADSVNGRFTISRDNAKNTVYLQMNSLKPEDNAVYYCNADRDSYIGFVDWAGEYWGQGTQVTVSS | low polyreactivity
12 | QVQLVESGGGLVQAGGSLRLSCAAYVFIFYVYAMGWYRQAHGKERELVAAISGGGDSTYYADSVKGRFTISRDNAKNTVYLQMNSLKPEDTAVYYCATRRYPEVVNGEYGYWGQGTQVTVSS | low polyreactivity
13 | QVQLVESGGGLVQAGGSLRLSCACSGHTFSSYAIGWYRQAPGKERELVAAISVSATRTYYADSVKGRFTISRDNEKNTVYLQMNSLKPEDTAVYYFAARPVQFTYGYWGLGTQVTVSS | high polyreactivity
14 | QVQLVESGGGLVQAGGSLRLSCADSGFIFVPYAMGWYRQAPGKERELVATITGRGDSTYYADSVKWRFTISRDNALNTVYLQMNSLKTEDTSLFYCAVDPIRLWAYDYWGQGTQVTVSS | low polyreactivity
15 | QVQLVESGGGLVQAGGSLRLSCADSGFTFRYNAIGSYRQAPGKERELVARISSTGGGTSYADSVKGRFTISRDNAKNTVYLQMNSLKPEDTAVYYCNKRSWGYGRGLPDSDYWGQGTQVTVSS | low polyreactivity
16 | QVQLVESGGGLVQAGGSLRLSCADSGGIFLSYGMGWYRQAPGKERELVAAISRNDGRTYYADSVKGRFTISRDNAKNTVYLQMNSLKPEDTAVYYCAADPEYYYYIYVYVQYDYWGQGTQVTVSS | low polyreactivity
17 | QVQLVESGGGLVQAGGSLRLSCADSGITIVWYAIGWYRQAPGKERELVAAISRGGGSTYYADSVKGRFTISRDNAKNTVYLQMNSLKPEDTAVYYCAASGGYTFDWLEFDYWGQGTQVTVSS | low polyreactivity
18 | QVQLVESGGGLVQAGGSLRLSCADSGLTFYDYAMGWYRQAPGKERELVADIDFNGGSTSYADSVKGRFTISRDNAKNTVYLQMNSLKPEDTAVYYCNTRDRGDVVTGLDYWGQGTQVTVSS | low polyreactivity
19 | QVQLVESGGGLVQAGGSLRLSCADSGNIIWGNAIGWYRQAPGKERELVAAISRRSGSTYYADSVKGRFTISRDNAKNTVYLQMNSLKPEDTAVYYCNTAGRVGTYDYWGQGTQVTVSS | high polyreactivity
20 | QVQLVESGGGLVQAGGSLRLSCADSGNTFYGYAMGWSRQSPGTERELVASITLSGDSTYYADSVKGRFTISRDNAKNTVYLQMNSLKPEDTAVYYCAGVYTYPLGYYHYTYDYWGQGTQVTVSS | low polyreactivity
21 | QVQLVESGGGLVQAGGSLRLSCADSGRIFLTNAMGWYRQAPGKERELGATITSGGSTNYADSVKGRFTISRDNAKNTVYLQMNSLKPVDTAVYDCAADWEFGFDYWGQGTQVTVSS | low polyreactivity

Row | Sequence | polyreactivity (PSR sort gate)
22 | QVQLVESGGGLVQAGGSLRLSCADSGRIFVAYAMGWYRQAPGKERELFADITWSGDITYYADSVKGRFTISRDNAKNTVYLQMNSLKPEDTAVYYCAADYHRRRTDYDYWGQVTQVTVSS | low polyreactivity
23 | QVQLVESGGGLVQAGGSLRLSCADSGRIFVLYAMGWYRQAPGKERELVAAISRSSTSTYYADSVKGRFTISRDNAKNTGYLQMNSLKPEDTAVYYCAARGRYAYPRYGYYPVNYWGQGTQVTVSS | high polyreactivity
24 | QVQLVESGGGLVQAGGSLRLSCADSGRIFWTNAMVWYRQAPGKERELVAAISYNGASTFYADSVKGRFTISRDNAKNTVSLQMNSLKPEDTAVYYCNAYSSRYRYNYWGQGTQVTVSS | high polyreactivity
25 | QVQLVESGGGLVQAGGSLRLSCADSGRILTFNAMGWYRQAPGKERELVASISNGGSTNYADSVKGRFTISRDNAKNTVYLQMNSLKPEDTAVYYCDADWRQGMWYGYYYWGQGTQVTVSS | low polyreactivity
26 | QVQLVESGGGLVQAGGSLRLSCADSGRTFYQNAKGWYRQAPGKEREFVAAISWSSGSTYYADSVKGRFTISRDYAKNTVYLQMNSLKPEDTAVYYCAAYTSFPYIWYGYWGQGTQVTVSS | high polyreactivity
27 | QVQLVESGGGLVQAGGSLRLSCADSGRTIPFYAMGWYRQAPGKERELVAAISSSAGRTYYADSVKGRFTISRDNAKNTVSLQMNSLKPEDTAVYYCAARLYGRYRYDYWGQGTQVTVSS | low polyreactivity
28 | QVQLVESGGGLVQAGGSLRLSCADSGSIFEVYAMGWYRQAAGKERELVAAINYTGGSTYYADSVKGRFTISRDNAKITVYLQMNSLKPEDTAVYYCARDTSGNGTRYDYWGQGTQVTVSS | low polyreactivity
29 | QVQLVESGGGLVQAGGSLRLSCADSGSIFLPYAMGCYRKAPGKERELVAAITWGGDSTYADSVKGRFTISRDNAKNTVYLQMNSQKPEDTAVYYCAAGAGFESDYWGQGTQVTVSS | low polyreactivity
30 | QVQLVESGGGLVQAGGSLRLSCADSGSIFQYNTMGWYRQAPGKERELVADINGRGGSTYYADSVKGRFTISRDNAKNTVYLQMNSLKPEDTAVYYCAVEGVSTYLWTSYGYWGQGTQVTVSS | low polyreactivity
31 | QVQLVESGGGLVQAGGSLRLSCADSGSIFYRYAMGWYRQAPGKERELGAAISQSGGSTYYADSVKGRFTISRDNAKNTVYLQMNSLKPEDTAVYYCQLIRRGHDYWGQGTQVTVSS | high polyreactivity
32 | QVQLVESGGGLVQAGGSLRLSCADSGSIGLYAMGWYRQAPGKETELVAVISRNGGSTYYADSVKGRFTISRDNAKNTVYLQMNSLKPEDTAVYYCAKRRLERGTGDYWGQGTQVTVSS | high polyreactivity
33 | QVQLVESGGGLVQAGGSLRLSCADSGSIQYYAMGWYRQAPGKERELVAAITWSGVSTSYADSVKGRFTISRDNAKNTVYLQMNRLKPEDTAVYYCNKDPGTLYGDLDSWGQGTQVTVSS | low polyreactivity
34 | QVQLVESGGGLVQAGGSLRLSCADSGSTFDDNAMGWYRQAPGKDRELVASITYRGGSTYYADSVKGRFTISRDNAKNTVYLQMNSLKPEDTAVYYCAKGHYFKYDYWGQGTQVTVSS | low polyreactivity
35 | QVQLVESGGGLVQAGGSLRLSCADSGSTFEANAMGWYRQAPGKERELVAAISSGGRTYYADSEKGRFTISRDNAKNTVYLKRNSLKPEDTAVYYCAAYVRRGFDWGQGTQVTVSS | high polyreactivity
36 | QVQLVESGGGLVQAGGSLRLSCADSGSTFRRKVMGWYRQAPGKERELVASIRSGGTTNYADSVKGRFTISRDNAKNTVYLQMNSLKPEDTAVYYCAAARSRGYYRASAEVLYGYWGQGTQVTVSS | high polyreactivity
37 | QVQLVESGGGLVQAGGSLRLSCADSGSTFSPDAMGWYIQAPGKERALVAAIRYSGTSTYYADSVKGRFTISRDNAKKTVYLQMNSLKPEDTAVYYCNTVFKYQGVRPYGYWGQGTQVTVSS | high polyreactivity
38 | QVQLVESGGGLVQAGGSLRLSCADSGSTFWFYTMGWYRQAPGKERELVATITSGGSTNYADSVKGRFTISRDNAKNTVYLQMNSLKPEDTAVYYCAASSVLTNHDYWGQGTQVTVSS | low polyreactivity
39 | QVQLVESGGGLVQAGGSLRLSCADSGYTFSPNAMGWYRQAPGKELELVAAISSAVSTDYADSVKGRFTISRDNAKNTVYLQMNSLKPEDTAVYYCAADDQYRVTLGYDYWGQGTQVTVSS | low polyreactivity
40 | QVQLVESGGGLVQAGGSLRLSCADSGYTFVYNAMGWYRQPPGKEREFVAAITWSGTSTRYADSVKGRFTISRDNAKNTVYLQMNSLKPEDTAVYYCAALGSGVPRYYYWGQGTQVTVSS | high polyreactivity
41 | QVQLVESGGGLVQAGGSLRLSCAFYYGMGWYRQAPGKERELVAAITLGGGSTYYADSVKGRFTISRDNAKNTVYLQMNSLKPEDTAVYYCNVTDVTEPSLIDGYYWGQGTQVTVSS | low polyreactivity

— the nanobody polyreactivity screen of Harvey et al. (2022)
